In PMC11662928, “L1-ORF1p nucleoprotein can rapidly assume distinct conformations and simultaneously bind more than one nucleic acid”:

Columns and labels:
ORF1p WT (111p) [1] = molecular target: ORF1p WT (111p) (UniProt Q9UN81); assay: optical tweezers; conditions: 30 pN; K* = compact and de-compact states equally occupied, not a simple Kd; Binding buffer with 50 mM Na+ (pH and other components not in the material), 21 C (stated for m128p); 8.1 knt ssDNA held at 5-50 pN
[2] = molecular target: m128p (CTD, RRM, 3.5 of 14 CC heptads) (UniProt Q9UN81); assay: optical tweezers (koff/kon); conditions: Binding buffer with 50 mM Na+ (pH and other components not in the material), 21 C (stated for m128p); 8.1 knt ssDNA held at 5-50 pN
ORF1p WT (111p) [3] = molecular target: ORF1p WT (111p) (UniProt Q9UN81); assay: optical tweezers (koff/kon); conditions: 30 pN tension, 1 nM ORF1p; Binding buffer with 50 mM Na+ (pH and other components not in the material), 21 C (stated for m128p); 8.1 knt ssDNA held at 5-50 pN
ORF1p WT (111p) [4] = molecular target: ORF1p WT (111p) (UniProt Q9UN81 1-338); assay: confocal fluorescence with optical tweezers; 30 nM ORF1p bound to tethered 8.1 knt ssDNA (ternary complex), 10 and 30 pN; Binding buffer with 50 mM Na+ (pH and other components not in the material), 21 C (stated for m128p); 8.1 knt ssDNA held at 5-50 pN; conditions: protein: recombinant; tags: N-terminal His; chain copies: 3; label: 5' Alexa488; single strand
ORF1p WT (111p) (UniProt Q9UN81 1-338), sequence (Q9UN81 whole entry): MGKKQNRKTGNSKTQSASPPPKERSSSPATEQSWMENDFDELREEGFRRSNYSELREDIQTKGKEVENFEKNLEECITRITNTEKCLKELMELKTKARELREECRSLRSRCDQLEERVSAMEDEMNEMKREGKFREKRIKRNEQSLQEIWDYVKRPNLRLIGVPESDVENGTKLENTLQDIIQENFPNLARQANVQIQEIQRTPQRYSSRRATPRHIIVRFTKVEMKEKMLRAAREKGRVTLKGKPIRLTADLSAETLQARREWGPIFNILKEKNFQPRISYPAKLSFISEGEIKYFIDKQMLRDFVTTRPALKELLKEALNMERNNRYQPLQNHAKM

ORF1p WT (111p) (UniProt Q9UN81), sequence (Q9UN81 whole entry): as above
m128p (CTD, RRM, 3.5 of 14 CC heptads), sequence (Q9UN81 128-338): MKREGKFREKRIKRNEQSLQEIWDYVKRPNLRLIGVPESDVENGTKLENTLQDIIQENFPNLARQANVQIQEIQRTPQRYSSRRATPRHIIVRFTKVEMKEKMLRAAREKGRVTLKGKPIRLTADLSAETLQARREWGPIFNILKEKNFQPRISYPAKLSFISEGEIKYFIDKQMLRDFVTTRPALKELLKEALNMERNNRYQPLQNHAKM

8.1 knt ssDNA
K half (ORF1p WT (111p) [1]): 2.8 nM
Kd [2]: 1600 pM
Kd (ORF1p WT (111p) [3]): 170 pM

TTTTTTTTTTTTTTTTTTTT (ssDNA) [Alexa488-dT20]
binding result (ORF1p WT (111p) [4]): binds
